Laboratory results: patent US20250361288A1 (Gilead, published 2025)
Where two headings read alike, the source gives them in different places.

B4: human HVEM extracellular domain fused with an Fc fragment at the C-terminus (Fc fusion, UniProt Q92956 39-202, looked up)
chain: LPSCKEDEYPVGSECCPKCSPGYRVKEACGELTGTVCEPCPPGTYIAHLNGLSKCLQCQMCDPAMGLRASRNCSRTENAVCGCSPGHFCIVQDGDHCAACRAYATSSPGQRVQKGGTESQDTLCQNCPPGTFSPNGTLEECQHQTKCSWLVTKAGAGTSSSHWV
notes: extracellular domain; Bought; also called hHVEM; not shown: Fc fragment at the C-terminus

Legend:
[1] = molecular target: T1, mouse HVEM extracellular domain fused with an Fc fragment at the C-terminus (mouse, UniProt Q80WM9 39-206, limits assumed); test: phage ELISA
T1 construct: extracellular domain; Bought; also called mHVEM; not shown: Fc fragment at the C-terminus
T1 sequence (looked up): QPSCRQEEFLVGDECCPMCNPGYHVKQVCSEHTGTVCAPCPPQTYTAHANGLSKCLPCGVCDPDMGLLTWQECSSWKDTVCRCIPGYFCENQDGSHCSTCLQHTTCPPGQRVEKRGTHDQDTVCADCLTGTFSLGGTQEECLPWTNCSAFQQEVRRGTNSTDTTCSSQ
How it was run: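 Supernatants from fourth-round clones rescued with helper phage were applied to plates coated with 1 μg/ml target for 1 h at room temperature. Bound phage detected with HRP anti-M13 and TMB at OD450; clones were called positive when the target/BSA ratio was >3.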

[2] = molecular target: T2, mouse LTβR extracellular domain fused with an Fc fragment at the C-terminus (mouse, UniProt P50284 31-223); test: ELISA on coated target-Fc
T2 construct: extracellular domain; Bought; also called mLTβR; not shown: Fc fragment at the C-terminus
T2 sequence (P50284 31-223): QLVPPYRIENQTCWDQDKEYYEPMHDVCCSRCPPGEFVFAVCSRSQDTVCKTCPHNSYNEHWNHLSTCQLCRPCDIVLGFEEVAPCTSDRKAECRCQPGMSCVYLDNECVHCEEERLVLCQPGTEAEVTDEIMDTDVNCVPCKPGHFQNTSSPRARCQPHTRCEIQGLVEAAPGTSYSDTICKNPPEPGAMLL
Procedure: (§1) Nunc MaxiSorp 96-well plates (Thermofisher) were coated with target proteins (1 μg/ml), and then blocked with 2% BSA-PBS buffer for one hour. Serial dilutions of the LIGHT muteins were added with a maximum concentration of 200 ng/ml. The plates were incubated for one hour, washed four times with PBST, and then incubated with mouse anti-His tag antibody (#105327, Sino Biological) for 1 hour. The plates were further incubated with HRP-conjugated goat anti-mouse secondary antibody (#SSA006, Sino Biological) before being washed three times with PBST and treated with TMB substrate (#34029, ThermoFisher). The plates were read at 450 nm on a SpectraMax M5 microplate reader (Molecule Devices). The ELISA results were analyzed using GraphPad Prism 9.0 software and the EC50s (half maximal effective concentration) were summarized in Table 5-1 and Table 5-2.

[3] = molecular target: T3, human LTβR extracellular domain fused with an Fc fragment at the C-terminus (human, UniProt P36941 31-227); test: ELISA on coated target-Fc
T3 construct: extracellular domain; Bought; also called hLTβR; not shown: Fc fragment at the C-terminus
T3 sequence (P36941 31-227): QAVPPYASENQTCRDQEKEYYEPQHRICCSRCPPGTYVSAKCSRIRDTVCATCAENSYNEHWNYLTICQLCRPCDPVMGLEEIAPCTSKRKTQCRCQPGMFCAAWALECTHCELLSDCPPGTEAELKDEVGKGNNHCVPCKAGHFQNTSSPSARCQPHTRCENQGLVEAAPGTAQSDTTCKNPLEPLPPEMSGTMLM
Procedure: as §1

[4] = molecular target: B4; test: ELISA on coated target-Fc, Table 5-1
Procedure: as §1

[5] = molecular target: T2, mouse LTβR extracellular domain fused …; test: ELISA on coated target-Fc; remark: listed apart in the source
How it was run: (§2)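 Plates coated with target protein at 1 μg/ml, blocked with 2% BSA-PBS; His-tagged LIGHT muteins added in serial dilution from 200 ng/ml, 1 h. Bound mutein detected with anti-His antibody plus HRP secondary, TMB read-out at 450 nm; EC50 from dose-response curves.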

[6] = molecular target: T3, human LTβR extracellular domain fused …; test: ELISA on coated target-Fc; remark: listed apart in the source
How it was run: as §2

LIGHT (74-240) = molecular target: T4, LIGHT (74-240) (human, UniProt O43557 74-240); test: ELISA on coated target-Fc
T4 construct: Soluble protein carries an N-terminal His tag; also called wild-type human LIGHT; LIGHT (74-240) (wt)
How it was run: as §2

B1: LIGHT-1 (ligand)
chain: DGPAGSWEQLIQERRSHEVNPAAHLTGANSSLTGSGGPLLWETQLGLAFLRGLSYHDGALVVTKAGYYYIYSKVQLGGMGCPLGLASTITHGLYKRTPRYPEELELLVSQQSPCGRATSSSRVWQDSSFLGGVVHLEAGEKVVVRVLDERLVRLLDGTRSYFGAFMV
notes: Printed mutations: V152M, W198Q, R228L; Soluble protein carries an N-terminal His tag
Question: Does B1 bind [1]?
Answer: Result: no binding

Question: And the EC50 [2]?
Answer: The EC50 was 0.8 nM.

Question: And the EC50 [3]?
Answer: The EC50 was 0.262 nM.

Question: Does B1 bind [4]?
Answer: Result: no binding

Question: What about the EC50 [5] of the same binder?
Answer: Its EC50 is 0.0605 µg/mL.

Question: And the EC50 [6]?
Answer: Its EC50 is 0.0493 µg/mL.

B2: LIGHT-7 (ligand)
chain: DGPAGSWEQLIQERRSHEVNPAAHLTGANSSLTGSGGPLLWETQLGLAFLRGLSYHDGALVVTKAGYYYIYSKVQLGGVGCRLGLASTITHGLYKRTPRYPEELELLVSQQSPCGRATSSSRVWWDSSFLGGVVHLEAGEKVVVRVQDERLVRLRDGTHSYFGAFMV
notes: Printed mutations: P155R, L220Q, R232H; Soluble protein carries an N-terminal His tag
Question: Does B2 bind [1]?
Answer: Result: binds

Question: Does B2 bind [4]?
Answer: Result: no binding

Question: What about the EC50 [5] of the same binder?
Answer: The EC50 was 0.156 µg/mL.

Question: And the EC50 [6]?
Answer: Its EC50 is 0.109 µg/mL.

B3: LIGHT-2 (ligand)
chain: DGPAGSWEQLIQERRSHEVNPAAHLTGANSSLTGSGGPLLWETQLGLAFLRGLSYHDGALVVTKAGYYYIYSKVQLGGVGCPLGLASTITHGLYKRTPRYPEELELLVSQQSPCGSATSSSRVWQDSSFLGGVVHLEAGEKVVVRVLDERLVRLLDGTRSYFGAFMV
notes: Printed mutations: R189S, W198Q, R228L; Soluble protein carries an N-terminal His tag
Question: Does B3 bind [1]?
Answer: Result: no binding

Question: And the EC50 [2]?
Answer: The EC50 was 2.06 nM.

Question: What about the EC50 [3] of the same binder?
Answer: The EC50 was 0.328 nM.

Question: Does B3 bind [4]?
Answer: Result: no binding

Question: And the EC50 [6]?
Answer: The EC50 was 0.0762 µg/mL.

Question: Does B4 bind (LIGHT (74-240))?
Answer: Result: binds
